In PMC10164912, “Exploration of O-GlcNAc transferase glycosylation sites reveals a target sequence compositional bias” (The Journal of Biological Chemistry, 2023):

B1: WT FUS N-terminal low-complexity region (LCRN), aa 1-214 (domain or fragment, human, UniProt P35637 1-214, looked up)
chain: MASNDYTQQATQSYGAYPTQPGQGYSQQSSQPYGQQSYSGYSQSTDTSGYGQSSYSSYGQSQNTGYGTQSTPQGYGSTGGYGSSQSSQSSYGQQSSYPGYGQQPAPSSTSGSYGSSSQSSSYGQPQSGSYSQQPSYGGQQQSYGQQQSYNPPQGYGQQNQYNSSSGGGGGGGGGGNYGQDQSSMSSGGGSGGGYGNQDQSGGGGSGGYGQQDRG
notes: FUS (fused in sarcoma), human, N-terminal low-complexity region, aa 1-214; 15N-labelled for NMR; also called WT FUS LCRN; FUS LCRN
B3: Mut-F FUS N-terminal low-complexity region (LCRN), aa 1-214 (domain or fragment, human, UniProt P35637 1-214, looked up)
chain: MASNDYTQQATQSYGAYPTQPGQGYSQQSSTPYAQASYSTYSPSTTTSAYGQSSYSSYGQSQNTGYATTSTPQAYPSTAPYATSPSSQSSYGQQSSYPAYTQQPAPTTTSASYATSSQSSSYGQPQSGSYSQQPSYGGQQQSYGQQQSYNPPQGYGQQNQYNSSSGGGGGGGGGGNYGQDQSSMSSGGGSGGGYGNQDQSGGGGSGGYGQQDRG
notes: FUS (fused in sarcoma), human, N-terminal low-complexity region, aa 1-214, with the combined mutations of Mut-A, Mut-B and Mut-C; 15N-labelled for NMR; also called FUS Mut-F; Mut-F FUS LCRN

Key:
Conditions in all cases: both partners purified
[1] = target: T1, TPR region of OGT (OGT-TPR, aa 2-474) not fused to SUMO (human, UniProt O15294 2-474); experiment: NMR titration; 1H-15N HSQC of 15N-labelled FUS LCRN (WT or Mut-F) without and with OGT-TPR whose SUMO tag was removed; the samples with OGT-TPR phase separated, no quantitative comparison
T1 construct: O-GlcNAc transferase (OGT), human ncOGT (longest isoform, 1-1046, 13 TPR repeats), tetratricopeptide repeat region, residues 2-474; Unlabelled; this was not measured here; also called OGT-TPR with the SUMO tag removed
T1 sequence (looked up): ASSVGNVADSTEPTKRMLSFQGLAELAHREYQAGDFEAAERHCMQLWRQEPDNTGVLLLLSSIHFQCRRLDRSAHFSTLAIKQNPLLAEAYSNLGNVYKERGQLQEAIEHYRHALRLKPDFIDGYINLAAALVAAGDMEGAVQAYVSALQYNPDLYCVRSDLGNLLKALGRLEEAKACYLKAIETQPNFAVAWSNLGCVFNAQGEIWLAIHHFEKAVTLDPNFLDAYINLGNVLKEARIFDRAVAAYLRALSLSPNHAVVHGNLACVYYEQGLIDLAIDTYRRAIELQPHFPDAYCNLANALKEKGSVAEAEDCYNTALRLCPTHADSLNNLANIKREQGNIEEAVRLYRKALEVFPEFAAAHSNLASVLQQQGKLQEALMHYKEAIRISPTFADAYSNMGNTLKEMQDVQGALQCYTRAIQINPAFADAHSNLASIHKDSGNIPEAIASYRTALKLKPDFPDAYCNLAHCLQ

[2] = target: B1; experiment: NMR titration; 1H-15N HSQC of 20 uM 15N-labelled FUS LCRN (WT or Mut-F) without and with 32 uM unlabelled SUMO-OGT-TPR; 600 MHz, 5 °C, 40 mM KPO4, 125 mM NaCl, 0.5 mM EDTA, 0.5 mM benzamidine, 5 mM DTT, 10% D2O, pH 7.2; peak intensity ratios plus OGT-TPR/apo
[3] = target: B3; experiment: as above

Question: Does B1 bind [1]?
Answer: Result: binds

B2: TPR region of OGT (OGT-TPR, aa 2-474) fused to a SUMO tag (domain or fragment, human, UniProt O15294 2-474, looked up)
chain: ASSVGNVADSTEPTKRMLSFQGLAELAHREYQAGDFEAAERHCMQLWRQEPDNTGVLLLLSSIHFQCRRLDRSAHFSTLAIKQNPLLAEAYSNLGNVYKERGQLQEAIEHYRHALRLKPDFIDGYINLAAALVAAGDMEGAVQAYVSALQYNPDLYCVRSDLGNLLKALGRLEEAKACYLKAIETQPNFAVAWSNLGCVFNAQGEIWLAIHHFEKAVTLDPNFLDAYINLGNVLKEARIFDRAVAAYLRALSLSPNHAVVHGNLACVYYEQGLIDLAIDTYRRAIELQPHFPDAYCNLANALKEKGSVAEAEDCYNTALRLCPTHADSLNNLANIKREQGNIEEAVRLYRKALEVFPEFAAAHSNLASVLQQQGKLQEALMHYKEAIRISPTFADAYSNMGNTLKEMQDVQGALQCYTRAIQINPAFADAHSNLASIHKDSGNIPEAIASYRTALKLKPDFPDAYCNLAHCLQ
notes: O-GlcNAc transferase (OGT), human ncOGT (longest isoform, 1-1046, 13 TPR repeats), tetratricopeptide repeat region, residues 2-474; Unlabelled; this was not measured here; also called SUMO-OGT-TPR; SUMO-fused OGT-TPR
Question: What does the source list for B2?
Answer: average peak intensity ratio (plus OGT-TPR/apo) [2]: 0.48; average peak intensity ratio (plus OGT-TPR/apo) [3]: 0.36 ± 0.22

Question: Does B3 bind [1]?
Answer: Result: binds
